Test results published in patent US20110250213A1 (JN BIOSCIENCES, published 2011).

T1: mouse CD122 (mouse, UniProt P16297 27-240, limits assumed)
T1 sequence (looked up): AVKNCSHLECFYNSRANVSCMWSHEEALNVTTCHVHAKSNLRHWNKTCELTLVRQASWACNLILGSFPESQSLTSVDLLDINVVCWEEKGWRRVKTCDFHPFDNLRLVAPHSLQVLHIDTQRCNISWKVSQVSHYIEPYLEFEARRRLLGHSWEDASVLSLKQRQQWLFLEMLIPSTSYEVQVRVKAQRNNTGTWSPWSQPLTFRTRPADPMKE


What was measured:
human CD122 (human) = human CD122 (human) (UniProt P14784); test: cell-based or functional assay
mouse CD122 = target: T1, mouse CD122; test: assay not specified

Chain of human CD122 (human) (P14784 27-551): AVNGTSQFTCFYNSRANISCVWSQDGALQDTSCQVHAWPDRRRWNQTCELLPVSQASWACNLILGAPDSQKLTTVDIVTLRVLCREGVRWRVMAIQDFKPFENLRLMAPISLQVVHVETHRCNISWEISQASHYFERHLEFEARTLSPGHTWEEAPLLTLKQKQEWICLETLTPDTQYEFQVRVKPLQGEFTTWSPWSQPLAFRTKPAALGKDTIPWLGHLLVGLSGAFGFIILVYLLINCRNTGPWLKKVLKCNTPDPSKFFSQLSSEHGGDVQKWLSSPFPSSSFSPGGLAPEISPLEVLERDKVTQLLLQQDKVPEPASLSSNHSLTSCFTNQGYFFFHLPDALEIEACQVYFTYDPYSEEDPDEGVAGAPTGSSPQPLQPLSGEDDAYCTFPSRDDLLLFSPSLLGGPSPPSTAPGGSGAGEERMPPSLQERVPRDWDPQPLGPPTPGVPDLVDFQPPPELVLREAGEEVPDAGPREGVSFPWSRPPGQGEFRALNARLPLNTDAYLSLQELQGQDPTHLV

antibody concentration required for 50% inhibition of proliferation mediated by trans-presentation of IL-15 to TF-1β cells (human CD122 (human)) | binding result (mouse CD122) | Molecule
10 µg/mL |  | HuMik-β1 (antibody)
 | no binding | ABC2 (antibody, mouse IgG1, V domains shown, Mouse IgG1/kappa purified from hybridoma; also called mouse anti-human CD122 monoclonal antibody ABC2) VH: EVKLVESGGGLVQPGGSLRLSCATSGFTFSDFYMEWVRQPPGKRLEWIAASRNKANDYTTEYSASVKGRFIVSRDTSQSILYLQMNALRAEDTAIYYCARSYYRYDGMDYWGQGTSVTVSS VL: QVVLTQSPVIMSASPGEKVTMTCSAISSVSYMYWYQQKPGSSPRLLIYDTSNLVSGVPVRFSGSGSGTSYSLTISRMEAEDAATYYCQQWNTYPYTFGGGTKLEIK
 | no binding | ABC101 (antibody, mouse IgG2b, V domains shown, Mouse IgG2b/kappa purified from hybridoma; also called mouse anti-human CD122 monoclonal antibody ABC101) VH: DVQLQESGPGLVKPSQTVSLTCTVTGYSITNDNHWWNWIRQVSGSKLEWMGYIDSSGSSDNNPSLKSQISITRDTSKNQLFLQLNSVTIEDIGTYYCARGGGRDYYGMDYWGQGTSVTVSS VL: DIVLTQSPASLAVSLGQRATISCRASQSVSTSSYSYVHWYQQKPGQPPKLLIKYASNLESGVPARFSGSGSGTDFTLNIHPVEEEDTATYYCQHSWDIPFTFGGGTKLEIK
